The term Kd denotes the free concentration of one partner at which half of the binding sites on the other are occupied at equilibrium, for simple one-to-one binding.

Numbering of substitutions follows the chain as printed.

Among the data in paper PMC7145699, “Structural insights into target DNA recognition by R2R3-MYB transcription factors” are binding result, binding signal and Kd values, retold here.

Assay in all cases: ITC; ITC: 150 mM NaCl, 20 mM HEPES pH 7.5, 25 C, 400 uM protein into 20 uM DNA; EMSA: 150 mM NaCl, 20 mM Tris-HCl pH 8.0, on ice 1 h, 0.1 uM DNA, 6% native PAGE 0.5x TBE
What all share (conditions): protein: recombinant; tags: 6xHis-SUMO removed by Ulp1; blunt

The target of one series is T1, WER L59A (Arabidopsis, UniProt Q9SEI0 12-130, L59A).
T1 sequence: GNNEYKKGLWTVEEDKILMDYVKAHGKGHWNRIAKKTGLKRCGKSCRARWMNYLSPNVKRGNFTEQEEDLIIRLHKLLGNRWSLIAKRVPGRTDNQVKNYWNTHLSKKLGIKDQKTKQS

Series [1] concerns the target T2, WER L59E (Arabidopsis, UniProt Q9SEI0 12-130, L59E).
T2 sequence: T1 sequence with A48E

Series [2] has as its target T2, WER L59E. The source holds these as a separate data set.
The target of a further series is T3, WER K55A (Arabidopsis, UniProt Q9SEI0 12-130, K55A).
T3 sequence: T1 sequence with K44A, A48L

B1: 5mC12 DNA (AA5mC) (dsDNA)
DNA 1: AAATTCTCCAACCGCATTTTC
DNA 2: GAAAATGCGGTTGGAGAATTT
modifications: 5mC at C12 of strand 1
On to B1, for which the binding result in the series with WER L59A is reported as “binds”. Besides, the binding signal with WER L59E [1] is ~4 fold decrease in affinity vs N1.

B2: GL2 promoter WER target DNA (dsDNA)
DNA 1: AAATTCTCCAACCGCATTTTC
DNA 2: GAAAATGCGGTTGGAGAATTT
As for B2, the Kd with WER L59A was found to be 47 nM; in the series with WER L59E [2], 47.8 nM. The binding signal with WER K55A is > 40 fold decrease in affinity vs WT.

B3: G12:C11* (dsDNA)
DNA 1: AAATTCTCCAAGCGCATTTTC
DNA 2: GAAAATGCGCTTGGAGAATTT
Consider B3, for which the binding result with WER L59A is recorded as “binds”.

B4: T12:A11* (dsDNA)
DNA 1: AAATTCTCCAATCGCATTTTC
DNA 2: GAAAATGCGATTGGAGAATTT
As to B4, the binding result in the series with WER L59A is given as “binds”.

B5: A12:T11* (dsDNA)
DNA 1: AAATTCTCCAAACGCATTTTC
DNA 2: GAAAATGCGTTTGGAGAATTT
Take B5: in the series with WER L59A, the binding result is “binds”.
